In US20160264649A1:

Key:
Assay in all cases: cell-based or functional assay
[1] = target: HIV-1 92UG024 Env (HIV-1)
[2] = target: HIV-1 MGRM-AE-006 Env (HIV-1)
[3] = target: HIV-1 MGRM-D-019 Env (HIV-1)
[4] = target: HIV-1 MGRM-D-028 Env (HIV-1)
[5] = target: HIV-1 MGRM-G-001 Env (HIV-1)
[6] = target: HIV-1 MGRM-C-007 Env on pseudovirus (HIV-1)
[7] = target: HIV-1 MGRM-C-008 Env on pseudovirus (HIV-1)
[8] = target: HIV-1 MGRM-Chronic-B-004 Env on pseudovirus (HIV-1)
[9] = target: HIV-1 92BR020 Env (HIV-1)
HIV-1 APV-13 Env (HIV-1) = target: HIV-1 APV-13 Env (HIV-1)
[10] = target: HIV-1 MGRM-G-017 Env (HIV-1)
[11] = target: HIV-1 APV_13 Env on pseudovirus (HIV-1)
[12] = target: HIV-1 MGRM-G-015 Env (HIV-1)
HIV-1 JRCSF Env (HIV-1) = HIV-1 JRCSF Env (HIV-1) (UniProt P20871)
[13] = target: HIV-1 MGRM-G-013 Env (HIV-1)
[14] = target: HIV-1 MGRM-G-027 Env (HIV-1)
[15] = target: HIV-1 MGRM-Chronic-B-018 Env on pseudovirus (HIV-1)
[16] = target: HIV-1 MGRM-D-008 Env (HIV-1)
[17] = target: HIV-1 MGRM-F1-023 Env (HIV-1)
[18] = target: HIV-1 MGRM-C-010 Env on pseudovirus (HIV-1)
[19] = target: HIV-1 94UG114 Env (HIV-1)
[20] = target: HIV-1 MGRM-AE-005 Env (HIV-1)
[21] = target: HIV-1 MGRM-G-028 Env (HIV-1)
[22] = target: HIV-1 92UG046 Env (HIV-1)
HIV-1 APV-17 Env (HIV-1) = target: HIV-1 APV-17 Env (HIV-1)
[23] = target: HIV-1 CAAN.A2 (Acute) Env on pseudovirus (HIV-1)
[24] = target: HIV-1 LAVI_C22 Env on pseudovirus (HIV-1)
[25] = target: HIV-1 MGRM-Chronic-B-011 Env on pseudovirus (HIV-1)
[26] = target: HIV-1 93IN905 Env (HIV-1)
[27] = target: HIV-1 MGRM-F1-018 Env (HIV-1)
[28] = target: HIV-1 MGRM-C-015 Env on pseudovirus (HIV-1)
[29] = target: HIV-1 MGRM-G-006 Env (HIV-1)
[30] = target: HIV-1 92UG001 Env (HIV-1)
[31] = target: HIV-1 MGRM-D-002 Env (HIV-1)
[32] = target: HIV-1 MGRM-Chronic-B-017 Env on pseudovirus (HIV-1)
[33] = target: HIV-1 MGRM-D-012 Env (HIV-1)
[34] = target: HIV-1 APV_6 Env on pseudovirus (HIV-1)
HIV-1 APV-6 Env (HIV-1) = target: HIV-1 APV-6 Env (HIV-1)
[35] = target: HIV-1 MGRM-C-006 Env on pseudovirus (HIV-1)
[36] = target: HIV-1 MGRM-C-019 Env on pseudovirus (HIV-1)
[37] = target: HIV-1 MGRM-C-009 Env on pseudovirus (HIV-1)
[38] = target: HIV-1 MGRM-AE-003 Env (HIV-1)
[39] = target: aMLV envelope (negative control pseudovirus)
[40] = target: HIV-1 MGRM-Chronic-B-023 Env on pseudovirus (HIV-1)
[41] = target: HIV-1 MGRM-AE-002 Env (HIV-1)
[42] = target: HIV-1 MGRM-F1-017 Env (HIV-1)
[43] = target: HIV-1 97ZA012 Env on pseudovirus (HIV-1)
[44] = target: HIV-1 93UG077 Env (HIV-1)
[45] = target: HIV-1 92RW009 Env (HIV-1)
[46] = target: HIV-1 MGRM-A-004 Env (HIV-1)
[47] = target: HIV-1 MGRM-A-001 Env (HIV-1)
[48] = target: HIV-1 MGRM-A-008 Env (HIV-1)

Substance: 4E10 (antibody)
- IC50 (µg/ml), pseudovirus neutralization [1]: 2.17 µg/mL
- neutralization IC50 [1]: 1.32 µg/mL
- neutralization IC90 [1]: 23.7 µg/mL
- IC50 (µg/ml), pseudovirus neutralization [2]: 0.23 µg/mL
- IC50 (µg/ml), pseudovirus neutralization [3]: 0.04 µg/mL
- IC50 (µg/ml), pseudovirus neutralization [4]: 1.28 µg/mL
- IC50 (µg/ml), pseudovirus neutralization [5]: 2.04 µg/mL
- IC50 [6]: 5.84 µg/mL
- IC50 [7]: 2.97 µg/mL
- IC50 [8]: 3.7 µg/mL
- neutralization IC50 [9]: 41.4 µg/mL
- neutralization IC90 [9]: > 50 µg/mL
- neutralization IC50 (HIV-1 APV-13 Env (HIV-1)): 3.8 µg/mL
- IC50 (µg/ml), pseudovirus neutralization [10]: 1.14 µg/mL
- IC50 [11]: 7.33 µg/mL
- IC50 (µg/ml), pseudovirus neutralization [12]: 1.07 µg/mL
- neutralization IC50 (HIV-1 JRCSF Env (HIV-1)): 6 µg/mL
- neutralization IC90 (HIV-1 JRCSF Env (HIV-1)): 44.1 µg/mL
- IC50 (µg/ml), pseudovirus neutralization [13]: 1.15 µg/mL
- IC50 (µg/ml), pseudovirus neutralization [14]: 1.19 µg/mL
- IC50 [15]: 23.2 µg/mL
- IC50 (µg/ml), pseudovirus neutralization [16]: 42.9 µg/mL
- IC50 (pseudovirus neutralization) [17]: 0.44 µg/mL
- IC50 [18]: 11 µg/mL
- IC50 (µg/ml), pseudovirus neutralization [19]: 9.72 µg/mL
- IC50 (µg/ml), pseudovirus neutralization [20]: 0.47 µg/mL
- IC50 (µg/ml), pseudovirus neutralization [21]: 6.32 µg/mL
- IC50 (µg/ml), pseudovirus neutralization [22]: 12.2 µg/mL
- neutralization IC50 (HIV-1 APV-17 Env (HIV-1)): 5.1 µg/mL
- IC50 [23]: 17.9 µg/mL
- IC50 [24]: 2.02 µg/mL
- IC50 [25]: 1.07 µg/mL
- neutralization IC50 [26]: 1.55 µg/mL
- neutralization IC90 [26]: 12.8 µg/mL
- IC50 (pseudovirus neutralization) [27]: 3.6 µg/mL
- IC50 [28]: 2.52 µg/mL
- IC50 (µg/ml), pseudovirus neutralization [29]: 1.23 µg/mL
- IC50 (µg/ml), pseudovirus neutralization [30]: 13.6 µg/mL
- IC50 (µg/ml), pseudovirus neutralization [31]: 9.44 µg/mL
- IC50 [32]: 2.77 µg/mL
- IC50 (µg/ml), pseudovirus neutralization [33]: 1.13 µg/mL
- IC50 [34]: 1.1 µg/mL
- neutralization IC50 (HIV-1 APV-6 Env (HIV-1)): 0.4 µg/mL
- IC50 [35]: 4.94 µg/mL
- IC50 [36]: 3.49 µg/mL
- IC50 [37]: 0.56 µg/mL
- IC50 (µg/ml), pseudovirus neutralization [38]: 0.34 µg/mL
- IC50 (pseudovirus neutralization) [39]: > 50 µg/mL
- IC50 [40]: 27.9 µg/mL
- IC50 (µg/ml), pseudovirus neutralization [41]: 0.55 µg/mL
- IC50 (pseudovirus neutralization) [42]: 4.92 µg/mL
- IC50 [43]: 4.7 µg/mL
- neutralization IC50 [44]: 10.6 µg/mL
- neutralization IC50 [45]: > 50 µg/mL
- neutralization IC50 [46]: 3.14 µg/mL
- neutralization IC50 [47]: 15.1 µg/mL
- neutralization IC50 [48]: 7.59 µg/mL

Substance: 2G12 (antibody)
- IC50 (µg/ml), pseudovirus neutralization [1]: 0.42 µg/mL
- neutralization IC50 [1]: 0.59 µg/mL
- neutralization IC90 [1]: 7.57 µg/mL
- IC50 (µg/ml), pseudovirus neutralization [2]: > 50 µg/mL
- IC50 (µg/ml), pseudovirus neutralization [3]: > 50 µg/mL
- IC50 (µg/ml), pseudovirus neutralization [4]: > 50 µg/mL
- IC50 (µg/ml), pseudovirus neutralization [5]: > 50 µg/mL
- IC50 [6]: > 50 µg/mL
- IC50 [7]: > 50 µg/mL
- IC50 [8]: 8.65 µg/mL
- neutralization IC50 [9]: 2.26 µg/mL
- neutralization IC90 [9]: 24.1 µg/mL
- neutralization IC50 (HIV-1 APV-13 Env (HIV-1)): 23.9 µg/mL
- IC50 (µg/ml), pseudovirus neutralization [10]: > 50 µg/mL
- IC50 [11]: 9.24 µg/mL
- IC50 (µg/ml), pseudovirus neutralization [12]: > 50 µg/mL
- neutralization IC50 (HIV-1 JRCSF Env (HIV-1)): 0.66 µg/mL
- neutralization IC90 (HIV-1 JRCSF Env (HIV-1)): 5.38 µg/mL
- IC50 (µg/ml), pseudovirus neutralization [13]: > 50 µg/mL
- IC50 (µg/ml), pseudovirus neutralization [14]: > 50 µg/mL
- IC50 [15]: > 50 µg/mL
- IC50 (µg/ml), pseudovirus neutralization [16]: > 50 µg/mL
- IC50 (pseudovirus neutralization) [17]: 9.23 µg/mL
- IC50 [18]: > 50 µg/mL
- IC50 (µg/ml), pseudovirus neutralization [19]: 13.9 µg/mL
- IC50 (µg/ml), pseudovirus neutralization [20]: > 50 µg/mL
- IC50 (µg/ml), pseudovirus neutralization [21]: 28.2 µg/mL
- IC50 (µg/ml), pseudovirus neutralization [22]: > 50 µg/mL
- neutralization IC50 (HIV-1 APV-17 Env (HIV-1)): > 50 µg/mL
- IC50 [23]: > 50 µg/mL
- IC50 [24]: > 50 µg/mL
- IC50 [25]: > 50 µg/mL
- neutralization IC50 [26]: > 50 µg/mL
- neutralization IC90 [26]: > 50 µg/mL
- IC50 (pseudovirus neutralization) [27]: > 50 µg/mL
- IC50 [28]: 1.75 µg/mL
- IC50 (µg/ml), pseudovirus neutralization [29]: > 50 µg/mL
- IC50 (µg/ml), pseudovirus neutralization [30]: > 50 µg/mL
- IC50 (µg/ml), pseudovirus neutralization [31]: > 50 µg/mL
- IC50 [32]: > 50 µg/mL
- IC50 (µg/ml), pseudovirus neutralization [33]: > 50 µg/mL
- IC50 [34]: 1.9 µg/mL
- neutralization IC50 (HIV-1 APV-6 Env (HIV-1)): 5.3 µg/mL
- IC50 [35]: > 50 µg/mL
- IC50 [36]: > 50 µg/mL
- IC50 [37]: > 50 µg/mL
- IC50 (µg/ml), pseudovirus neutralization [38]: > 50 µg/mL
- IC50 (pseudovirus neutralization) [39]: > 50 µg/mL
- IC50 [40]: 0.16 µg/mL
- IC50 (µg/ml), pseudovirus neutralization [41]: > 50 µg/mL
- IC50 (pseudovirus neutralization) [42]: > 50 µg/mL
- IC50 [43]: > 50 µg/mL
- neutralization IC50 [44]: > 50 µg/mL
- neutralization IC50 [45]: 26.1 µg/mL
- neutralization IC50 [46]: > 50 µg/mL
- neutralization IC50 [47]: > 50 µg/mL
- neutralization IC50 [48]: > 50 µg/mL
